Data reported in patent CN110294802A (INST MILITARY MEDICINE ACADEMY MILITARY SCIENCES PLA, dated 2019).

Key:
[1] = molecular target: HAdV7病毒原液 (human/CHN/GZ6965/2001); test: cell-based or functional assay
合成的口蹄疫病毒多肽抗原 = test: ELISA, antigen coated on plate, anti-human IgG-HRP detection

B1: 10G12抗体 (antibody, V domains shown)
VH: QVQLKQPGAELVRPGASVKLSCKASGYSFTNYWMHWMKQRPGQGLEWIGMIDPSDSETRLNQKFKDKATLTVDKSSSIAYMQLSSPTSEDSAVYYCARDRYDGGAWFDYWSQGTLVT
VL: DIVMTQTPLSLPVSLGDQASISCRSSQSLVHSNGNTYLHWYLQKPGQSPKLLIYKVSNRFSGVPDRFSVSGSGTDFTLKISRVEAEDLGVYFCSQSTHVPPTFGGGTKLEIK
notes: also called 单克隆抗体10G12
抗体对腺病毒感染的抑制率 (EC50, CPE on A549 cells) [1]: 0.2 µg/mL
binding result (合成的口蹄疫病毒多肽抗原): no binding (tested: 300μg/ml)
